According to the DeepSol protein solubility set:

Assay: soluble on expression in E. coli; label from the status in PepcDB or PDB records
In the case of “GPGSMLALSQGLPTVDPALVKAFKRAANNASTSGDVDDDSRRQEVARINKEAQKAWRAEEKSFIPAIYLRTRDPSAEDVLQHLRVTSKAFELNLRFRDIEQLDEMQVKLWSLLTADKSKQTVTISEFTEIMNKLKVWQGQRFEPTPKTSPCREISVRSAQQECPVDTTPLDEVMYVGVAKRPRPSLQLFLSCPRSHAGGVEVAHIYQRFAKQVSLVKCEAELLMWDTNNDGRLTEDELESYVRDLVSRVDALRDISNDILPFYCCAVSRRIFWALDPGMRGTIRIDALLQSPLMDEWVSLQLMREDLPRNWFSAAITSHLYDKFLLLDTRNQGTLNAANMKLYKKGLPTVRDDGLPRGVGPLSSLFIDRFFETSVMMACSELDFRKFVDFVIAVEFLPACQRPLFFWNILDIEGCGVLRPVHVNSFFRETHSKLVEAGLEMPSRETVVQEVFDLIPTAEPLRITREEFVKAPQAGLFVALLIDCLSFWAYENREQR”, the “soluble on expression in E. coli” value was “not soluble”. In the case of “MEPGVDGARKQIAEVVAERIERLILDGVLKAGQALPSERRLTEKLGVSRTALREGLRVLWARQIIHTAQGKGSYVAQISQVDAGPLVHLFNSQPRTLYDLLEVRALLESESARLAAIRGTDADFIMIRRRYDEMLAAHGRETDSATHAHLDHAFHLAICQASHNAVLVHTLQSLTDLLLGSVFACVNNLYHREPHKRHIDQQHERLFLAVLAREPEQAHQAARAHVDSVRQSLAEIEQEEQRLVRATLRLEGWV”, the “soluble on expression in E. coli” value was “not soluble”. For “MSLMKLTKLFLATAISLGVSSAVLAADYDLKFGMNAGTSSNEYKAAEMFAKEVKEKSQGKIEISLYPSSQLGDDRAMLKQLKDGSLDFTFAESARFQLFYPEAAVFALPYVISNYNVAQKALFDTEFGKDLIKKMDKDLGVTLLSQAYNGTRQTTSNRAINSIADMKGLKLRVPNAATNLAYAKYVGASPTPMAFSEVYLALQTNAVDGQENPLAAVQAQKFYEVQKFLAMTNHILNDQLYLVSNETYKELPEDLQKVVKDAAENAAKYHTKLFVDGEKDLVTFFEKQGVKITHPDLVPFKESMKPYYAEFVKQTGQKGESALKQIEAINPEGGSHHHHHH”, the “soluble on expression in E. coli” value was “soluble”. In the case of “MSHLVYVSRVVAAPIERVWPHLRDFNGLSAWHPGVADSRLEEGGRDDAPGTVRFLSLNPSGYVRERLLMLDDAGRSLRYAIIETDLPMRDYVAGVDLCPVTEGGGTFAQWWADFDVVAGANRDEVARLVGEGVFAAGLQALDQYLRDRQG”, the “soluble on expression in E. coli” value was “soluble”. With “MTTLYLASGSPRRQELLTQLGFSFEQVVPGIEEQRRAQESAQQYVVRLAREKAQAGVALVPRDLPVLGADTIVVLNGEVLEKPRDAAHAAEMLRLLSGNTHQVMTAVALADSQQTLDCLVVTEVTFRTLSAQDITGYVASGEPLDKAGAYGIQGRGGCFVRKINGSYHAVVGLPLVETYELLSHFNALRDKRDKHDG” the “soluble on expression in E. coli” value was “not soluble”. In the case of “MGSDKIHHHHHHMKMEELFKKHKIVAVLRANSVEEAKEKALAVFEGGVHLIEITFTVPDADTVIKELSFLKEKGAIIGAGTVTSVEQCRKAVESGAEFIVSPHLDEEISQFCKEKGVFYMPGVMTPTELVKAMKLGHTILKLFPGEVVGPQFVKAMKGPFPNVKFVPTGGVNLDNVCEWFKAGVLAVGVGSALVKGTPDEVREKAKAFVEKIRGCTE”, the “soluble on expression in E. coli” value was “soluble”. For “AIASDEPKLSERSLHKFENVRIIIKDENKTCFQGELNIGEDWFCLLSEIDPSNSLRVNAKDLLLHAICQRDEHCEKPSIYCQVQGESDEDQYETIYIVPEESSQVEKIFETFCDLVRRTPVPLTDEEGSDGEWYGNVPWSVGNCDSEQFEDAEETDTQL”, the “soluble on expression in E. coli” value was “soluble”. For “MQTELTGKLQKLGFTENEAKIYIGLLRQGEVTAREIHEFTHVPRTKIYSTLNRMSKKKYIEVIEGTPAYFRSIDPEQLLERLRDEFLFSLNETLEELNSAGYGMKNKCC”, the “soluble on expression in E. coli” value was “not soluble”. In the case of “SKRVVFVTVGTTSFDALVKAVVSQNVKDELQKRGFTHLLIQMGRGIFFPTKCDGADGSLVVDYFTFSSSIADYIRSASLVISHAGSGSIFETLKLGKPLIVVVNEDLMDNHQCELAEALEERKHLYYTRPHSLHQTLTKMELGSLVQYTPGDGTPVARIIDRFLG”, the “soluble on expression in E. coli” value was “soluble”. With “MVNREIVMDYILSCLQDLVENGVEIKPDSDLVNDLGLESIKVMDLLMMLEDRFDISIPINILLDVKTPAQLMETLLPWLENK” the “soluble on expression in E. coli” value was “not soluble”. In the case of “MSIRRSDPLAQVSDFDIRLLRIFKSVVEAGGFSAAESALGIGRSAISQQMSDLEQRLGLRLCQRGRAGFSLTDEGREVYQSSLQLLSALESFRTEVNGLHQNLRGELNIGLTDNLVTLPHMRITHALSRLKERGPGVHINIRMIAPAEVEQGVLDGGLHVGVVPQASALPGLEYHSLYSERSLLYCAVGHPLFYAENTMLDDQRLALQEAVAPTFRLPNDIQEHYKALTCTASASDREGIAFLILTGRYIGYLPDHYANAWVQEGRLRALKPDAKFYDLNLVTVTRKGRRPHLVLEGFLEALAATR”, the “soluble on expression in E. coli” value was “not soluble”. For “MGSDKIHHHHHHMAVTLYSSIATPHNKNTHHYFTRRTFLPDQQNSLWKIEAGFVRTFTYLENGTTVALGLWGPGDILGRALSKLEPYQMECLTKVEATIVPIEEWKNPTDTLLAHIQQAEELMVIRSYKKVDTMLIKLLAWLSKKFGSEVDKGRLIDMRLTHEDLAEMLGSTRVTITRILGQFEEEGLINRLSLHRIVLKEEDIWYYEI”, the “soluble on expression in E. coli” value was “not soluble”. In the case of “MIFKKEPKRYTVEDTIPYLRLLKSGICQLDEKHFSKSIAFQDINYQLALDEDRDLIFNQFANFLNSFDPSISIEFSYVNQLGRNEEMKSAIQIPDKKDGFDDIRFEFREMLKSQIVKGNNGLKKSKYVTFTVEADNLEQATSKLERLEIDILSNLKSMGVRAESLNGEERLKILHDVLNPNKTFEFSYKDLKKRESTKTYIVPDEFNFTPSRYFKFGKFIGATSHFQILASELSDRMLSEFLDIDDNINISFHIRAIDQSEAIKMVKRKNTDIDKMKIEENKKAVRSGYDMDILPSDLITYGEDVKSLLKDLQTRDERMFVVSIVFMNFARTVQKLDNTIAQISSIANKHNCKLKRLDHSQEQGLVSMLPLGVNKIEIDRGLTSSSTAVFMPFTTEELFINSSNSLYYGLNALSHNLIMADRKKLKNPNGLILGTPGSGKSFSAKREMANAILVTDDDVIICDPEGEYGNLVRQFKGEVIKVSSKSKDYLNPLDINMNYGDGDAPLKDKANFIMSMLELVVGGSGLTAEEKSVIDRCLPKIYEKYFEHPTPDNMPILQDLYDMLKGQEEKVGKKLATEMEIYVSGSLNVFNHRSNVDLNKKLLCFDIKELGSQLKKIGMLVIQDQVWNKVSQNRGNKATRYYIDEFHLLLKDEQTASYSVEIWKRFRKWGGIPTGITQNVKDLLMSKEIENIFDNTDFVLMLNQASGDREILARKLKISLPQLRYVTNSNEGEGLLFFGNTIVPFLDKFPKDTILYQKMTTKPEEVRLEHHHHHH”, the “soluble on expression in E. coli” value was “soluble”. In the case of “MPKFVVIELNDDAATIDLLSYCVKKNFERVSLLTRLEDHPYLRDDQDVVQDDTQSQGTDGMLLQLNDEERQRLMKMISTPGPQTLSMERIQMAPGQGQHILQQHQIPSTSSYTNNSFIYIKSDPQYKDEPQQQSNQFDATVNSVAHGQAGLSTLEMFACNGSPNGGDVLRRKTPSRKAEDSIKATCKVCGHDVMYSPQRTWNLMRHVWIMHQSSKPNQCSICGYSHIKPYVRKHIESQHKHDSNATIIDLKSPELEAEWSQLLDQCFGVTYRKWKHHKEDTQHTGGLLFDDDELRG”, the “soluble on expression in E. coli” value was “soluble”. In the case of “MGSDKIHHHHHHMLQNRERTYSLPQPFYSDDRLFEIDMQEIFHKEWLIAGMTCEIPTKGNFLTLQIGKNPILVVRGPDGAVNAFHNVCRHRGSRLCTAEKGKVAKLVCHYHQWTYELDGRLLYAGTEMGDDFDMKQFGLKPVHVKTAGGYIFISLAENPPAIDEFLATLKHYMEPYDMENTKVAVQTTLMEKANWKLVLENNRECYHCGGAHPELLKTLLEWDDVTDPRADQAFKDHVAASAAAWDAEKIPYAHASFGLRNRIVRMPLLKGTVSMTMDGKVGCKKLMGRIQNPELGSMRILHLPHSWNHCMGDHIIVFTVWPISAQETMVSTKWIVHKDAVEGVDYDVARMRQVWDATNDQDRRLAEENQRGINSTAYQPGPYSKTYEFGVVNFIDWYSARMLENLGAEPAPYLKGVAVNHE”, the “soluble on expression in E. coli” value was “not soluble”. For “MSDRGRTLMVQGTTSDAGKSTLVTALCRWLARRGVAVVPFKPQNMALNSAVTADGGEIGRAQAVQAQACRLAPHTDMNPVLLKPNTDIGAQVIIHGRAVTSMDAAAYHDYKRVAMEAVLASHGRLAAAYRVVMVEGAGSPAEINLRANDIANMGFAEAVDCPVILVADIDRGGVFAHLVGTLELLSDSERERVKGFVINRFRGDIALLQPGLDWLEARTGKPVLGVLPYVSDLHLEAEDAIDTRQAAKVGPRLKVVVPVLPRISNHTDFDPLRLHPQVELSFVGPGQALPSADLIVLPGSKSVRADLAALRERGWDEAILRHLRYGGRLLGICGGLQMLGERLHDPLGLEGAAGSSAGLGLLALETTLEADKQLRNVQGRLSLEDAPLSGYEIHAGVTRGEALARPAVVLDDGRADGARSVDGNVMGTYLHGLFESTAACSALLRWAGLREVQAVDYQALRERDIERLADLVERHLDTGRLLALCGEPH”, the “soluble on expression in E. coli” value was “not soluble”. In the case of “LPAFFKTFDRQEDFMVDVFRLNIDALKENYLPLARFFENLNENTGNESSVILETSKSGMPNFRVKKGEHTFFVHSPYDPRTEAIRWAEKIDLKGFDTIAVLGIGCGYHIEELEKKYPDKNKIVIEPDRNVFLKLLNTRDITHLISSKNILFIISDNTEEIAKVFLLLREEGEIDSVEFNELLSYRKVYEDWWLELKKEYIKFARLHQINTNTSVFFAEAWLTNLFEGMWQLTKSVHIKEYKSAFANIPAIVVSAGPALNKNVHLLKELYNKAVIISAGSALNILESRGITPHIMVGVDGGEAESRIFNNVKSNEIYFAYSLSVHYDGLKNYSGPKIYFKTNVLGYGDWIDEKLGIEGAENLRSGSSVSNLSLDIARYMGCNPIIVIGQNLSFPNLESYADGAVLKQEQDRHIQQCVENSNKYYVLEKDIDGNDVYTTHSMLSIRFYFEEYIKNHPDRLYLNGSEEGLPIKGMKNMPLKEIVEKYCTKEYDIKGILDKKFKEEFEAENVKAKEIKIRRILEDIHKESTEIRQKAIKRIDLILDILSNIRGSHNDKWEEIDRLTDEIESSDLYKYFVEPLSKYFIQAVKNERERKMESIPDIQERLKYLYEGLLIQYVEVKDKIVLIDDLSQKIIENIDKKEATKCLSMV”, the “soluble on expression in E. coli” value was “soluble”. With “MTYDPKTAVKQDSFSGKEPFNILLLGTDTGAFGRKEVRGNSDTMILVTVNPAKKKLSLMSIPRDTMARMIGTDNFSVHKINAAYNIGGAKMAMRTTSKVLNVPIKYYISMNMGGMRKIVDGVGGVTVTPPLTFTYDGYTFTKGKTVHLNGSQALAYSRMRYDDPKGDYGRQLRQREVIMSVLEHALSFNTLKNLDSILGSVSTSLRTNLTFDSMVKISKNYRKCTNNMSSDYLHGVGAMIGDASYQVMSDRELQRTSNIVRNDLGLDSMDIDNNETYQNSMNSQFDWNSGDSNQVYYIYDPYTDELWNGDRAYLEHHHHHH” the “soluble on expression in E. coli” value was “soluble”. In the case of “QVQLVESGGGLVQPGGSLRLSCATSGFTFTDYYMSWVRQPPGKALEWLGFIRNKANGYTTEYSASVKGRFTISRDNSQSILYLQMNTLRAEDSATYYCARDGSYAMDYWGQGTSVTVSSASTKGPSVFPLAPSSKSTSGGTAALGCLVKDYFPEPVTVSWNSGALTSGVHTFPAVLQSSGLYSLSSVVTVPSSSLGTQTYICNVNHKPSNTKVDKKVEP”, the “soluble on expression in E. coli” value was “soluble”. In the case of “MSANDRRDRRVRVAVVFGGRSNEHAISCVSAGSILRNLDSRRFDVIAVGITPAGSWVLTDANPDALTITNRELPQVKSGSGTELALPADPRRGGQLVSLPPGAGEVLESVDVVFPVLHGPYGEDGTIQGLLELAGVPYVGAGVLASAVGMDKEFTKKLLAADGLPVGAYAVLRPPRSTLHRQECERLGLPVFVKPARGGSSIGVSRVSSWDQLPAAVARARRHDPKVIVEAAISGRELECGVLEMPDGTLEASTLGEIRVAGVRGREDSFYDFATKYLDDAAELDVPAKVDDQVAEAIRQLAIRAFAAIDCRGLARVDFFLTDDGPVINEINTMPGFTTISMYPRMWAASGVDYPTLLATMIETTLARGVGLH”, the “soluble on expression in E. coli” value was “soluble”.
